Source: the supplement of paper PMC10126150
± gives the standard deviation of the averaged measurements.

Tested on: ATP
Assay: switch fluorescence ratio, 500 uM ATP over buffer (Cy3 cluster intensity, sum of 5 cycles each) (fold (ratio)); higher = stronger signal-on switching upon ATP binding; sequences stand for … in TCGTCGGCAGCGTCAGATGTGTATAAGAGACAGTTTTTTTTTTTTTTTTTTTTTTTTT…TC
Details: aptamer strand: ATP DNA aptamer (quencher-CACCTGGGGGAGTATTGCGGAGGAAGG + anchor), 100 nM annealed; ATP concentration: 500 uM
Summary of the method: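 For every switch-domain sequence, the fluorescence ratio is the mean of per-cluster values, each being summed target-cycle Cy3 intensity over summed buffer-cycle Cy3 intensity. Clusters outside 100-1000 RFU were excluded. On a modified Illumina MiSeq flow-cell, the Cy3-labelled switching-strand clusters were annealed to 100 nM quencher-labelled ATP aptamer, imaged in selection buffer and then after 15 min with 500 uM ATP at 22 °C. Five such cycles were run, with NaOH stripping and re-annealing between them.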
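Note: ATP exposure 15 min at 22 °C before imaging.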

Row | Sequence | switch fluorescence ratio
1 | CTGGTTTCGG | 0.993 ± 0.022
2 | CTGGTTTGAG | 0.97 ± 0.012
3 | CTGTAAGGCC | 0.981 ± 0.015
4 | CTGTAAGGGG | 0.977 ± 0.022
5 | CTGTAATATT | 1.13 ± 0.029
6 | CTGTACGGGG | 1.02 ± 0.054
7 | CTGTATATAG | 1.017 ± 0.0083
8 | CTGTATGGGT | 0.9978 ± 0.0094
9 | CTGTATGGTA | 1.04 ± 0.045
10 | CTGTATGTCA | 0.99 ± 0.0098
11 | CTGTATTCAC | 1.04 ± 0.033
12 | CTGTCAAGTA | 0.972 ± 0.012
13 | CTGTCGAGTA | 1.13 ± 0.19
14 | CTGTCTGCCG | 1.01 ± 0.017
15 | CTGTGATACT | 2.93 ± 0.22
16 | CTGTGGAGGG | 0.9455 ± 0.0091
17 | CTGTGGGTCC | 0.976 ± 0.034
18 | CTGTGGGTTC | 1 ± 0.016
19 | CTGTGTATGG | 0.989 ± 0.036
20 | CTGTGTCTTT | 0.995 ± 0.072
21 | CTGTTAGAGA | 1.01 ± 0.014
22 | CTGTTAGGGG | 0.967 ± 0.03
23 | CTGTTAGGTA | 1.007 ± 0.01
24 | CTGTTATCGA | 0.9972 ± 0.0029
25 | CTGTTCTGGC | 0.962 ± 0.12

Row | Sequence | switch fluorescence ratio
26 | CTGTTTATTG | 0.977 ± 0.027
27 | CTGTTTGGTA | 1 ± 0.055
28 | CTGTTTGTAT | 0.978 ± 0.02
29 | CTGTTTGTGC | 0.975 ± 0.013
30 | CTGTTTTGGT | 1.008 ± 0.0028
31 | CTGTTTTTGT | 1.01 ± 0.024
32 | CTTAAAATGG | 1.03 ± 0.038
33 | CTTAAACAGC | 1.02 ± 0.063
34 | CTTAAAGAGT | 0.964 ± 0.043
35 | CTTAAAGGTC | 1.02 ± 0.052
36 | CTTAAATATG | 1 ± 0.012
37 | CTTAAATGTT | 1.014 ± 0.0078
38 | CTTAATTATA | 1.01 ± 0.015
39 | CTTAATTTGA | 0.984 ± 0.058
40 | CTTACATTGC | 1.05 ± 0.029
41 | CTTACCTTGC | 1.99 ± 0.44
42 | CTTACGGCAC | 1.82 ± 0.062
43 | CTTACGGGCA | 1.03 ± 0.033
44 | CTTACGTCTG | 1.01 ± 0.015
45 | CTTACTATTG | 1.03 ± 0.05
46 | CTTAGATGTT | 0.963 ± 0.024
47 | CTTAGCTAGA | 1.0428 ± 0.00056
48 | CTTAGGAGGG | 0.997 ± 0.013
49 | CTTAGGGGAT | 1.03 ± 0.047
50 | CTTAGGGGT | 1.03 ± 0.015

Row | Sequence | switch fluorescence ratio
51 | CTTAGGGTAG | 1.01 ± 0.019
52 | CTTAGTAGTA | 0.992 ± 0.019
53 | CTTATAATAG | 1.036 ± 0.006
54 | CTTATAGACT | 1.01 ± 0.011
55 | CTTATGATTT | 0.998 ± 0.033
56 | CTTATTAGGC | 1.05 ± 0.042
57 | CTTATTAGGT | 0.985 ± 0.045
58 | CTTATTTGGC | 1.032 ± 0.0017
59 | CTTCACCAAC | 1.19 ± 0.013
60 | CTTCAGGAAG | 0.9946 ± 0.0021
61 | CTTCATAGGG | 0.968 ± 0.024
62 | CTTCGTGCAT | 1.23 ± 0.069
63 | CTTCTCGGCG | 1.08 ± 0.053
64 | CTTCTCTAGT | 0.9742 ± 0.0069
65 | CTTCTGAGGG | 1.02 ± 0.012
66 | CTTCTGGGGA | 0.993 ± 0.02
67 | CTTCTTCAGC | 1.44 ± 0.061
68 | CTTGAATTTT | 0.988 ± 0.049
69 | CTTGCATAAC | 3.51 ± 0.88
70 | CTTGCGCCTG | 1.01 ± 0.048
71 | CTTGGAAATA | 1.02 ± 0.013
72 | CTTGGAAGGG | 0.9683 ± 0.006
73 | CTTGGCTCTT | 0.985 ± 0.01
74 | CTTGGGACTT | 1 ± 0.05
75 | CTTGGGGCTT | 0.985 ± 0.014

Row | Sequence | switch fluorescence ratio
76 | CTTGGGGGAA | 0.964 ± 0.013
77 | CTTGGGTCTG | 1 ± 0.066
78 | CTTGGTAGTG | 0.959 ± 0.015
79 | CTTGGTCAAG | 0.9834 ± 0.0062
80 | CTTGGTGGGG | 0.969 ± 0.031
81 | CTTGGTGTAT | 1.03 ± 0.086
82 | CTTGGTGTTG | 1.04 ± 0.065
83 | CTTGTAACGG | 0.975 ± 0.01
84 | CTTGTAATTT | 1.02 ± 0.035
85 | CTTGTAGGGA | 0.9956 ± 0.0053
86 | CTTGTATTAG | 1.01 ± 0.012
87 | CTTGTCAGGG | 0.975 ± 0.021
88 | CTTGTCGAGG | 0.986 ± 0.042
89 | CTTGTCTGAG | 0.9818 ± 0.0096
90 | CTTGTGGATG | 1 ± 0.029
91 | CTTGTTAGCG | 0.9807 ± 0.0076
92 | CTTGTTAGGG | 0.996 ± 0.032
93 | CTTGTTGCCG | 1.01 ± 0.013
94 | CTTGTTTAAC | 0.993 ± 0.035
95 | CTTGTTTTGT | 1.02 ± 0.015
96 | CTTTAAGGTG | 1.39 ± 0.062
97 | CTTTACACAG | 1.0006 ± 0.00047
98 | CTTTAGGTGG | 1.03 ± 0.037
99 | CTTTATGTCG | 1.02 ± 0.048
100 | CTTTATGTTT | 0.991 ± 0.015
